Laboratory results reported in patent US6669963B1, “Stable particle in liquid formulations” (Elan Drug Delivery Limited, priority 1997, dated 2003).

Legend:
[1] = Storage stability of EPO preparations, residual EPO by Quantikine IVD EPO-specific immunoassay; type: physicochemical; conditions: within one day
Method: Freeze dried EPO was re-hydrated and diluted 100 fold with a buffer of the following composition:
and dried in a spray dryer as above. The powder was weighed into 125 mg aliquots and subjected to secondary drying at a temperature ramping from 40° C. to 80° C. at a rate of 15 degrees per hour under vacuum and then either sealed in a serum vial or re-suspended in 0.5 ml of mineral oil BP and sealed. They were then stored at 37° C. or 55° C. for up to 15 days. At the end of the storage period, residual EPO was extracted into phosphate buffered saline containing 0.01% BSA as above and the amount remaining in the extract was measured using a Quantikine IVD EPO-specific immunoassay (RD Systems Inc).

phage lambda DNA = assay: Storage stability of EcoR1 preparations, residual titre by complete cutting of DNA; type: physicochemical
Method: Restriction enzymes are customarily stored in freezers at −20° C. in buffers containing 50% glycerol to prevent ice formation. Even under these conditions some of them have a limited storage life and need to be replaced at intervals. Several enzymes were dried using the technique of the present invention with similar results. The data with one enzyme, EcoR1, is illustrated. The enzyme solution was diluted 100 fold in SC buffer (Colaco C. A. L. S., Sen S., Thangavelu M., Pinder S. and Roser B. “Extraordinary stability of enzymes dried in trehalose: Simplified molecular biology.” Biotechnol. 10 1007-1011 (1992)). The dried enzyme was produced in the spray dryer as above, sealed in vials with or without oil and its stability was compared with fresh liquid enzyme diluted in cutting buffer at three storage temperatures 4° C., 37° C. and 55° C. To determine residual activity after storage, the enzyme was recovered into the acueous phase as described earlier, diluted with SC buffer in a 2-fold dilution series and used to cut 0.5 μg of phage lambda DNA (Life Technologies Inc). The completeness of cutting at various dilutions was assessed by separating the DNA fragments by agarose gel electrophoresis in which the bands were visualised under UV light by ethidium bromide staining.

**Q.** What does the source list for “fresh EPO: Recombinant Human Erythropoietin, not dried in trehalose”?
**A.** loss of activity ([1]; 37° C.): 88%; loss of activity ([1]; 55° C.): > 95%

**Q.** For “fresh enzyme: Restriction Endonuclease EcoR1, fresh liquid enzyme diluted in cutting buffer”, which activity on storage (phage lambda DNA; 4° C., over 28 days) is on record?
**A.** stable

**Q.** What about the activity on storage (phage lambda DNA; 37° C., by 28 days) of the same substance?
**A.** lost essentially all activity

**Q.** And the “time to completely inactive” value (phage lambda DNA; 55° C.)?
**A.** ≤ 7 days
